Laboratory results taken from PMC6366628.

Columns and labels:
RAD52 = target: T1, RAD52 (Homo sapiens, UniProt P43351 1-418); assay: EMSA
T1 sequence: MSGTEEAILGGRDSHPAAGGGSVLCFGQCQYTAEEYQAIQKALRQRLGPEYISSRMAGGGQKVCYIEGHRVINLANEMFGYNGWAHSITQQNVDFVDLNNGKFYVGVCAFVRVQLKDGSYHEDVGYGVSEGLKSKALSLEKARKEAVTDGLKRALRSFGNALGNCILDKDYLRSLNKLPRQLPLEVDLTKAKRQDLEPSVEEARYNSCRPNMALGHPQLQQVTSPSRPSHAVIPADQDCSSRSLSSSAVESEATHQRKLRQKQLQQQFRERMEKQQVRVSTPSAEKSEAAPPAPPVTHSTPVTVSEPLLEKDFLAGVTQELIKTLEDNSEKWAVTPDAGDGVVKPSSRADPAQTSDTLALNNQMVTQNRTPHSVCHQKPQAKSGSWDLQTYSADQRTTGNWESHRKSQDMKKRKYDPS

RPA complex = RPA complex (Homo sapiens, UniProt P27694;P15927;P35244 1-616;1-270;1-121); assay: EMSA
RPA complex, sequence (P27694 whole entry, chain 1 of 3): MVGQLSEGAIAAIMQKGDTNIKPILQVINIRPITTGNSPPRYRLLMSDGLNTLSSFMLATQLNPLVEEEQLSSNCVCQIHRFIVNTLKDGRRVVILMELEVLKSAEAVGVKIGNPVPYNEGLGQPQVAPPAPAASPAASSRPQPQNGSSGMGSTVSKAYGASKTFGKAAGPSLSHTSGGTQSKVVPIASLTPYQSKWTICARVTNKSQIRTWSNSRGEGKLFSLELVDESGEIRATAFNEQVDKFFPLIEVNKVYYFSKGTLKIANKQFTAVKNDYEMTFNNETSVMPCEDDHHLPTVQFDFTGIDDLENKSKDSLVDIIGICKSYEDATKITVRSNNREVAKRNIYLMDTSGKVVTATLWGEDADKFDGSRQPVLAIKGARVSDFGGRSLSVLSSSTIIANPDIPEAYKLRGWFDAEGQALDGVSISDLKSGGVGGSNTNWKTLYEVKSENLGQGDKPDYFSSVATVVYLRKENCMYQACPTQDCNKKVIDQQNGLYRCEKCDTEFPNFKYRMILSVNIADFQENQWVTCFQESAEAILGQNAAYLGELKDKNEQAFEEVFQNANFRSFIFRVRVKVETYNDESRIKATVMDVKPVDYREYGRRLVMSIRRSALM
RPA complex, sequence (P15927 whole entry, chain 2 of 3): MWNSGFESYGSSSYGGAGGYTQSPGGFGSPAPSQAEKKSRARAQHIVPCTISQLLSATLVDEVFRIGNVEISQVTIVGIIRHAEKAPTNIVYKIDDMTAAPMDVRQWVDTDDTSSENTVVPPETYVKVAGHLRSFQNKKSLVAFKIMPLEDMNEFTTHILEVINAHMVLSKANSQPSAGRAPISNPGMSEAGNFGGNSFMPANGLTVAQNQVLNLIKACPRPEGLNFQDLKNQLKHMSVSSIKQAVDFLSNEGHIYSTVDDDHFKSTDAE
RPA complex, sequence (P35244 whole entry, chain 3 of 3): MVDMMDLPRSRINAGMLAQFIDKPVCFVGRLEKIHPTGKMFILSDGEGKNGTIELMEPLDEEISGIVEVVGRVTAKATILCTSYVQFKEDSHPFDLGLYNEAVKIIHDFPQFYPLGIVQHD

B1: ssTelo (Telo G-strand) (ssDNA)
DNA: TTAGGGTTAGGGTTAGGGTTAGGGTTAGGGTTAGGGTTAGGGTTAGGGTTAGGGTTAGGG
**Q.** Does B1 bind (RAD52)?
**A.** Result: binds

**Q.** Does B1 bind (RPA complex)?
**A.** Result: binds
